Results reported in PMC11969024 (2025).

B1: peptide HD2 (from tick evasin EVA4) / CXCL13 (biotinylated, synthetic) (parent complex)
chain 1: EEDDYTAYAPLTCYFT
chain 2: VLEVYYTSLRCRCVQESSVFIPRRFIDRIQILPRGNGCPRKEIIVWKKNKSIVCVDPQAEWIQRMMEVLRKRSSSTLPVPVFKRKIP
B2: peptide HD2 (from tick evasin EVA4) / CCL22 (biotinylated, synthetic) (parent complex)
chain 1: EEDDYTAYAPLTCYFT
chain 2: GPYGANMEDSVCCRDYVRYRLPLRVVKHFYWTSDSCPRPGVVLLTFRDKEICADPRVPWVKMILNKLSQ

Variants of: B1

| Variant | enrichment |
| --- | --- |
| chain 1 Y5P | -1.42 log2 (difference from the parental peptide) |
| chain 1 Y5G | -3.88 log2 (difference from the parental peptide) |
| chain 1 Y5M | -0.226 log2 (difference from the parental peptide) |
| chain 1 Y5D | 1.05 log2 (difference from the parental peptide) |
| chain 1 Y5A | -2.67 log2 (difference from the parental peptide) |
| chain 1 Y14H | -4.76 log2 (difference from the parental peptide) |
| chain 1 Y8A | -4.55 log2 (difference from the parental peptide) |
| chain 1 A9H | -1.63 log2 (difference from the parental peptide) |
| chain 1 T12M | -0.149 log2 (difference from the parental peptide) |
| chain 1 T12F | -1.29 log2 (difference from the parental peptide) |
| chain 1 D3L | -5.21 log2 (difference from the parental peptide) |
| chain 1 E1S | -2.39 log2 (difference from the parental peptide) |
| chain 1 L11W | -1.43 log2 (difference from the parental peptide) |
| chain 1 E2W | 1.38 log2 (difference from the parental peptide) |
| chain 1 P10N | -5.21 log2 (difference from the parental peptide) |
| chain 1 T16S | 0.948 log2 (difference from the parental peptide) |

Variants of: B2

| Variant | enrichment |
| --- | --- |
| chain 1 Y14K | -0.0931 log2 (difference from the parental peptide) |
| chain 1 Y14A | -1.98 log2 (difference from the parental peptide) |
| chain 1 Y14N | -0.898 log2 (difference from the parental peptide) |
| chain 1 Y14V | 0.032 log2 (difference from the parental peptide) |
| chain 1 Y14G | -4.12 log2 (difference from the parental peptide) |
| chain 1 A9Q | -2.13 log2 (difference from the parental peptide) |
| chain 1 A9K | -1.67 log2 (difference from the parental peptide) |
| chain 1 A9F | -6.96 log2 (difference from the parental peptide) |
| chain 1 A9V | -7.85 log2 (difference from the parental peptide) |
| chain 1 L11P | -5.29 log2 (difference from the parental peptide) |
| chain 1 L11R | 1.13 log2 (difference from the parental peptide) |
| chain 1 L11A | -0.478 log2 (difference from the parental peptide) |
| chain 1 L11W | -0.394 log2 (difference from the parental peptide) |
| chain 1 Y5L | -1.89 log2 (difference from the parental peptide) |
| chain 1 D4W | -3.58 log2 (difference from the parental peptide) |
| chain 1 D4M | -4.82 log2 (difference from the parental peptide) |
| chain 1 D4I | -7.79 log2 (difference from the parental peptide) |
| chain 1 D4P | -7.07 log2 (difference from the parental peptide) |
| chain 1 D4Q | -6.48 log2 (difference from the parental peptide) |
| chain 1 F15Q | -0.747 log2 (difference from the parental peptide) |

| Variant | enrichment |
| --- | --- |
| chain 1 F15W | 0.858 log2 (difference from the parental peptide) |
| chain 1 F15G | -2.74 log2 (difference from the parental peptide) |
| chain 1 F15N | -0.8 log2 (difference from the parental peptide) |
| chain 1 F15H | 0.892 log2 (difference from the parental peptide) |
| chain 1 T16R | 0.774 log2 (difference from the parental peptide) |
| chain 1 T16F | -0.929 log2 (difference from the parental peptide) |
| chain 1 T16C | -0.313 log2 (difference from the parental peptide) |
| chain 1 T16P | 1.71 log2 (difference from the parental peptide) |
| chain 1 E1Y | -0.831 log2 (difference from the parental peptide) |
| chain 1 E1F | -2.24 log2 (difference from the parental peptide) |
| chain 1 Y8V | -7.55 log2 (difference from the parental peptide) |
| chain 1 T6V | -4.41 log2 (difference from the parental peptide) |
| chain 1 T6A | 2.21 log2 (difference from the parental peptide) |
| chain 1 T6K | -1.04 log2 (difference from the parental peptide) |
| chain 1 T6W | 0.246 log2 (difference from the parental peptide) |
| chain 1 T6Q | 1.04 log2 (difference from the parental peptide) |
| chain 1 T6P | -4.79 log2 (difference from the parental peptide) |
| chain 1 T6R | -0.184 log2 (difference from the parental peptide) |
| chain 1 T6F | -4.13 log2 (difference from the parental peptide) |
| chain 1 P10D | -7.41 log2 (difference from the parental peptide) |

| Variant | enrichment |
| --- | --- |
| chain 1 P10W | -5.26 log2 (difference from the parental peptide) |
| chain 1 P10G | -7.9 log2 (difference from the parental peptide) |
| chain 1 A7F | -4.01 log2 (difference from the parental peptide) |
| chain 1 A7H | -1.29 log2 (difference from the parental peptide) |
| chain 1 A7N | 0.601 log2 (difference from the parental peptide) |
| chain 1 A7R | 1.93 log2 (difference from the parental peptide) |
| chain 1 A7K | 1.75 log2 (difference from the parental peptide) |
| chain 1 A7S | 0.765 log2 (difference from the parental peptide) |
| chain 1 T12S | -0.091 log2 (difference from the parental peptide) |
| chain 1 T12R | 4.22 log2 (difference from the parental peptide) |
| chain 1 T12K | 2.34 log2 (difference from the parental peptide) |
| chain 1 T12N | -0.224 log2 (difference from the parental peptide) |
| chain 1 D3W | -4.6 log2 (difference from the parental peptide) |
| chain 1 E2P | -5.46 log2 (difference from the parental peptide) |
| chain 1 C13V | -4.77 log2 (difference from the parental peptide) |
| chain 1 C13N | -2.81 log2 (difference from the parental peptide) |
| chain 1 C13E | -7.93 log2 (difference from the parental peptide) |
| chain 1 C13D | -7.57 log2 (difference from the parental peptide) |
| chain 1 C13T | -3.64 log2 (difference from the parental peptide) |
